Experiment: yeast display, Sf9 membrane polyspecificity reagent, FACS + sequencing; frameworks hold sequencing errors
How it was run: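 A nanobody's polyreactivity label depends on the gate it was sorted from. Yeast display cells were stained with 10% biotinylated, detergent-solubilized Sf9 membrane reagent for 1 hour at 4 °C, enriched on streptavidin microbeads and sorted by FACS. The low and high (top ~1%) gates were set on anti-HA fluorescence for expression and streptavidin fluorescence for reagent binding.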

Sequence	polyreactivity (PSR sort gate)
QVQLVESGGGLVQAGGSLRLSCAASGFIFGYYAMGWYIPAPGKERELVAAISGSGGSTYYADSVKGRFTISRDNAKNTVYLQMNSLKPEDTAVYYCAAYGRAPGTSQRYDYRGQGTQVTVSS	high polyreactivity
QVQLVESGVGLVQAGGSLRLSCAASGRTIPIYAMGWYRQAPGKERELVASITRSGGSTYYADSVKGRFTISRDNAKYTVYLQMNSLKPEDTAVYYCAAAANSYSVYSGKFYYWGQGTQVTVSS	high polyreactivity
QVQLVESGGGLVQAGGSLRLSCAASGSIFYSNVMGWYRQAPGKERELVARITDAGSTNYADSVKGRFTISRDNAKNTVYLQMNSLKPEDTAVYYCNARLVIYTYDYWGQGTQVTVSS	low polyreactivity
QVQLVESGGGLVQAGGSLRLSCAASGRIFQYYAMGWYRQAPGKERELVAAIDQSGDTTYYADSVKGRFTISRDNAKNTVYLQMNSLKPEDTAVYYCAAGYDWAYHWVPQWMYFWGQGTQVTVSS	low polyreactivity
QFQLVESGGGLVQAGGSLRLSCAASGSIFRAYAMGRYRQATGKERELVADISRSGGSTYYADSVKGRFTISRDNAKNTVYLQMNSLTQEVTAVYYCAAVFYLYSNLYGEYDYWGQGTQVTVSS	low polyreactivity
QVQLVESGGGLVQAGGSLRLSCAASGRIKYNVMGWYRQAPGKEMELVAAITRSAGRTYYADSVKGRFSISRDNAKNTVYLQMNSLKPEHTGGYYCAAQAERYGYVYWGQGTQVTVSS	low polyreactivity
QVQLVESGGGLVQAGGSLRLSCAASGRTFRSYAMGWYRQAPGKERELVAAISQRGGSTYYADSVKGRFTISRDNAKNTVYLQMNSLKPEDTAVYYCATPVRSGYDYWGQGTQVTVSS	high polyreactivity
QVQLVGSGGGLVQAGGSLRLSCAASGSTIKYYAMGWYRQAPGKERELVARITSDGGSTFYADSVKGRFTISRDNAKNTAYVQMNSLKPEDPAVYYCNTAYAFRHWWFYPMDYWGQGTQVTVSA	high polyreactivity
QVQLVESGGGLVQAGGSLRLSCAASGRILIRKAMGRSRQAPGKERELVAAINRGGGSTYYADSVKGRFTISRDNAKNTVYLQMNSLKPEDTAVYYCAADRKAGYSRVDGDYWGQGTQVTVSS	low polyreactivity
QVQLVESGGGLVQAGGSLRLSCAASGITFEPNDMGWYRQAPGKERELVAAISWSGGDTYYADSVKGRFTISRDNAKNTVYLQMNSLKPEDTAVYYCAAESWVAYEYWGQGTQVTVSS	low polyreactivity
QVQLVESGGGLVQAGGSLRLSCAASGNIFSFNDMGWYRQAPGKERELVAGITTSESTNYADSVKGRFTISRDNAKNTVYLQMNSLKPEDTAVYYCATEILTAARDTVVYQFYLGYYYWGQGTQVTVSS	low polyreactivity
QVQLVESGGGLVQAGGSLRLSCAASGRTFRYYVMGWYIQAPAKERELVARISYSAGSTYYADSVKGRFTISRDNAKKTVYFQMNSLKPEDTAVDYCNAGGNFKDYGHYYWGQCTQVTVSS	high polyreactivity
QVQLVESGGGLVQAGGSLRLSCAASGFTFSFYAMGWYRQAPGKERELVAAITSRGTSTYYADSVKGRFTISRDNAKNTVYLQMNSLKPEDTEVYYCAKLLPRGQWPYDYWGQGTQVTVSS	high polyreactivity
KVQLVESGGGLVQAGGSLRLSCAASGRIFVGYAMGWYRQAPGKERELVAAINRSGSSTYYADSVKGRFTISRYNAKNTVYLQMNSLKPEDTAVYYCNARSGKRYGPRYDYWGQGTQVNVSS	high polyreactivity
QVQLVESGGGLVQAGGSVRLSCAASGRIFGIYAMGWYRQAPGKERELVAAITWIGGRTYYADSVKGRFTISRDNAKNTVYLQMNSLKPEDTAVYYCNAVYTQRFATYRRYDYWGQGTQVTVSS	high polyreactivity
QVQLVESGGGLVQAGGSLRLTCAASAFTFKLYVMGWYRHATGKERQFDAGITKRGGRTYYADSVKGRFTISRDNAKNTFYLQMNSLKPEDTAVYYCSAGTRIYNSCIRFDYWGQGTQVTVSS	high polyreactivity
QVQLVESGGGLVQAGGSLRLSCAASGSIFITYAMVWSRQAPGKERELVAAIRDSGDRTYYADSVKGRFTISRDNAKNTVYLQMNSLKPEDTAVYYCAADYFVQVPDYYYASEYGYWGQGTQVTVSS	low polyreactivity
QVQLVESGGGLVQAGGSLRLSCAASGRIFSSNAMGWYRQAPGKERELVASISSTGSTKYADSVKGRFTISRDKAKNTVYLQMNSLKQEDSAVYYCAAGRYLWHFTFDYWGQGTQVTVSS	low polyreactivity
QVQLVESGGGLVQAGGSLRLSCAASGNTFGRYAMGWSRQAPGKERELVASIRGSSVRTFYADSVKGRFTISRDNAKNTVYLQMNSLKPEDTAVYYCAKRGYAYPSSYDSWGQGTQVTVSS	high polyreactivity
QVQLVESGGCLVQAGGSLRLSCAASGRIIDFYTLGWYRQAPGKERELVAGINGSGASTYYADSVKGRFTISRDNAKNTVYLQMNSLKPEDTAVYYCAKDPGYYYDYDYWGQGTQVTVSS	low polyreactivity
QVQLVESGGGLVQAGGSLRLSSAASGRIFKKNSMGWYRQAPGKERELVAAINWTGGSTYYADSVKGRFTISRDNAMNTVYLQLNSLKPEDTAFYYCAVGVYPSYRGPTFSTRRDYWGQGTQVTVSS	low polyreactivity
QVQLVESGGGLDQAGGSLRISCAASGSTLLGNAMGWYRQAPGKERELVAAISTSGDSTNYADSVKGRFTISRDNAKNTVYLQMNSLKPEDTAVYYCNAGGYLISDVDRVGYWGQGTQVTVSS	low polyreactivity

Sequence	polyreactivity (PSR sort gate)
QVQLVETGGGLVQAGGSLRLSCDASVSTFRYYTMGWYRQAPGKERELVASIRRGGSTNYADSVKGRFTISRDNAKNTVYLQMNSLKPEDTAVYYCNAKKGVYNGDAAKYDYWGPGTQVTVSS	high polyreactivity
QVQLVESGGGLVQAGGSLRLSCAASGSIFPHYAMGWYRQAPGKERELVASITYDGDSTYYADSVKGRFTISRDNAKNTVYLQMNSLKPEDTAVYYCAADYYYVYSSFGHYYWGQGTQVTVSS	low polyreactivity
QVQLVESGGGLVQAGGSLRLSCAASGSTFSFNAMGWYRQAPGKERELVAAIRWSGGSTYYADSVKGRFTISRDNAKNTVYLQMNSLKPEDTAVYYCATYWKGGRPPYRYYYWGQGTQVTVSS	high polyreactivity
QVQLVESGGGLVQAGGSLRLSCAASGRTFYYYAMGWHRQAPGKERELVARIRSGGSTNYADSVKGRFTISRDNAKNTVYLQMNSLKPEDTAVYYCAAVRPPTPSRRREDYWGQGTQVTVSS	low polyreactivity
QVQLVESGGGLVQAGGSLRLICAASGSIFNGYVMGWYRQAPGKERELVAAISSGGRTYYADSVKGRFTISRDNAKNTVYLQMNSLKPEDTAVYYCAADIWYFDYDYWGQGTQVTVSS	high polyreactivity
QVQLVESGGGLVQAGGSLRLSCAASGIYYNAMGWYRQAPGKERELVAAITTGDRTNYADSVKGRFTISRDNAKNTVYLQMYSLIPEDTAVYYCKAVVERLSSTARDFAYDYWGQGTQVNVSS	low polyreactivity
QVQLVESGGGLVQAGGSLRLSCAASGSTFSYNAMGWYRQAPGKERELVAAINLRGGNTYYADSVKGRFTISRDNAKNTVYLQMNSLKPEDTAVYYCARTRRHSQNFDYWGQGTQVIVSS	high polyreactivity
QVQLEESGGGLVQAGGSLRLSCAASGSILRRYAMGWYRQAPGKEREFVAAMSYSGSRTYYADSVKGRFTISRDNAKYTVYLQMYSLKPEDTAVYYCAADSYGSRYEYWGLGTQVTVSS	high polyreactivity
QVQLVESGGGLVQAGGSLRLSCAASGIIFSYYALGWYRQAPGKERELVAAITRGGGRTYYADSVKGRFTISRDNAKNTVSLQMNSLKPEDTAVYYCNALSRYVENDYWGQGTQVTVSS	high polyreactivity
QVQLVESGGGLVQAGGSLRLSCAASGSNFTFYTMGWYRQEPGKERELVAAINWSGSRTYYADSVKGRFTISRDNAKNTVYLQMNSLKPEDTAVYYCDAYYYTGPTTVESDYWGQGTQVTVSS	high polyreactivity
QVQLVESGGGLVQAGGSLRLSCAASGSTFILYAMGWYRHAPGKERELVAAISRSTGITYYADSVKGRFTISRDNAKNTVYLQMNSLKPEDTAGYYCAADAWGYNDYDASYSTGYEYWGQGTQVTVSS	high polyreactivity
QVQLVESGGGLVQAGGSLRLRCAASGRIFNNYAMGWYRPAPGKERELVAAISGSGGSTYYADSVKGRFTISRDNAKNNVYLQMNSLKPEDTAVYYCSTSGPHYFSRNFDYWGQGTQVTVSS	low polyreactivity
QVQLVESGGGLVQAGGSLRLSCAASGRIFPRNTMGWYRQAPGKEREMVAAISTRGGSTYYADSVKGRFTISRDNAQNTVYLEMNSLKPEDTAVDYSAAGRRFPAIYSTGNYWGQGTQVTVSS	high polyreactivity
QVQLVESGGGLVQAGGSLRLRCAASGSIFTWYAMGWYRQAPAKERELVAAITRGGSTSADSVKGRFTISRDNAKNTVYLQMNSLKPEYTAVYYCNAVYGVYDFNYWGQGTQVTVSS	low polyreactivity
QVQLVESGGGLDQAGGSLRLSCAASGSISAIYTMGWYRQAPGKERELVAAISSGDSTNYADSVKGRFTISRDNAKNTVYLQMNSLKPEDTAVYYCATERSHLATGQGYYYVQTFYYWGQGTEVTVSS	low polyreactivity
QVQLVESGGGLVQAGGSLRLSCAASGFTIDYYTMGWYRQAPGKERELVAAISWSGGSTYYADSVKGRFTISRDNAKNTVYLQMNSLKPEDTAVYYCAAAWSYRYELYYWGQGTQVTVSS	low polyreactivity
QVQLVESGGGLVQAGGSLRLSCAASGRIFRKYAMGWYRQAPGKERELVAAISVGGGSTRYADSEKGRFTISRDYAKYTVYLQMNSLKPEYTAVYYCAADWAYYVASYLYYTFDYWGQGTQVTVSS	low polyreactivity
QVQLVESGGGLVQAGGSLRLSCAASGSTLYWYAMGWYRQAPGKERELVARITVSGGSTSYADSVKGRFTISRYNAKNTVYLQMNSLKPEDTAVYYCAARRYWTGYYYWGQGTQVTVSS	high polyreactivity
QVQLVESGGGLVQAGGSLRLSCAASGFTFIYYAMGWYRQAPGKERELVAAISSRTGRTYYADSVKGRFTISRDNAKNTVYLQMNSLKPEDTAVYYCNADRNWRSGKFNYWGQGTQVTVSS	high polyreactivity
QVQLVESGGGLVQAGGSLRLSCAASGSIFRGYAMGWYRPAPGKERELVAAISSSGGTTYYADSVKGRFTISRDNAKNTVYLQMNSLKPEDTAVYYCNARHPYTGGRRYPYTRYDYWGQGTQVTVSS	high polyreactivity
QVQLVESGRGLVQAGGSLRLSCAASGIIFSSYAMGWYRQAPGKERELVAAISYSGGSTYYADSVKGLFSISRDNAKNTVYLEMNCLIPEDTAVYYCAAQGYSPGGYDYWGQGTQVTVSW	low polyreactivity
